Patent US20260034234A1 (AGENSYS, published 2026)

What was measured:
[1] = biological target: T1, Cynomolgus 191P4D12 (on PC3 cells) (cynomolgus monkey, UniProt A0A2K5WES1 32-510); assay: FACS on PC3 cells expressing the cyno ortholog
T1 construct: also called PC3-Cynomolgus-191P4D12; Cyno ortholog
T1 sequence: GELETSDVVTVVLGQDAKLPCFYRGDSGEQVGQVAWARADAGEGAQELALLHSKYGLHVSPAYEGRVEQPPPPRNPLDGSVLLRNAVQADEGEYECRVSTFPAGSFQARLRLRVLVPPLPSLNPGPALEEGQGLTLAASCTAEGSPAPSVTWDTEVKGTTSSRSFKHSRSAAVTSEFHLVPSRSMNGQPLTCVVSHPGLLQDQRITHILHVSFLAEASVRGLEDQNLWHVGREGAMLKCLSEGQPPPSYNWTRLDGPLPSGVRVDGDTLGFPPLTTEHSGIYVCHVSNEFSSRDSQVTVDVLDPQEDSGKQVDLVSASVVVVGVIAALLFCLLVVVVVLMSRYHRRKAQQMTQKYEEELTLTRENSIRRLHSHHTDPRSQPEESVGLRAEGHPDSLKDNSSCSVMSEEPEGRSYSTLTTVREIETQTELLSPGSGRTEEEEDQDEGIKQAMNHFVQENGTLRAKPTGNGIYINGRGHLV
Source text: The 191P4D12 protein of human, cynomolgus, rat and murine origin was overexpressed recombinantly in a PC3 cell line to determine cross-reactivity of Ha22-2(2,4)6.1 to these orthologs. It was shown that Ha22-2(2,4)6.1 strongly cross-reacts with cynomolgus and rat orthologs of 191P4D12 (FIG. 23).

[2] = biological target: T2, 191P4D12 (human, wild type, on cells) (human, UniProt Q96NY8 32-510); assay: FACS titration on PC3 cells expressing 191P4D12
T2 construct: 510 amino acid ORF expressed on PC3, RAT/Rat1(E) cells and present in cancer cell lines and tumor specimens; also called human 191P4D12; wild-type 191P4D12
T2 sequence: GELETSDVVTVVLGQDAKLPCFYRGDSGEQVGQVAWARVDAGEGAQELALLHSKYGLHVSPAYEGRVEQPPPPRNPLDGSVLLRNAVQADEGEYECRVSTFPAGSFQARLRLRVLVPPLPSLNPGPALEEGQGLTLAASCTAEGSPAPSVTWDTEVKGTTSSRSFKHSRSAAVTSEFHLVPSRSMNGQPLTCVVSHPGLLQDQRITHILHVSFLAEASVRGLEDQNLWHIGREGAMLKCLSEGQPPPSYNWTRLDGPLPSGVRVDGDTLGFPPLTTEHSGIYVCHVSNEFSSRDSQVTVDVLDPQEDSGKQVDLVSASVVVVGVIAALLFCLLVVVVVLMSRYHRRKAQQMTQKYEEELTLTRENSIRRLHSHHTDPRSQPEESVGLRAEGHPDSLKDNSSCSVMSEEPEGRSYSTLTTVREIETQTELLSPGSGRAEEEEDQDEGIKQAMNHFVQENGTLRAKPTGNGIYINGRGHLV

[3] = biological target: T3, Murine ortholog of 191P4D12, N90S mutant (on PC3 cells) (mouse, UniProt Q8R007 31-508); assay: FACS titration of Ha22-2(2,4)6.1 on PC3 cells expressing mouse 191P4D12 N90S
T3 construct: whole, on cells; also called murine mutant ortholog
T3 sequence (looked up): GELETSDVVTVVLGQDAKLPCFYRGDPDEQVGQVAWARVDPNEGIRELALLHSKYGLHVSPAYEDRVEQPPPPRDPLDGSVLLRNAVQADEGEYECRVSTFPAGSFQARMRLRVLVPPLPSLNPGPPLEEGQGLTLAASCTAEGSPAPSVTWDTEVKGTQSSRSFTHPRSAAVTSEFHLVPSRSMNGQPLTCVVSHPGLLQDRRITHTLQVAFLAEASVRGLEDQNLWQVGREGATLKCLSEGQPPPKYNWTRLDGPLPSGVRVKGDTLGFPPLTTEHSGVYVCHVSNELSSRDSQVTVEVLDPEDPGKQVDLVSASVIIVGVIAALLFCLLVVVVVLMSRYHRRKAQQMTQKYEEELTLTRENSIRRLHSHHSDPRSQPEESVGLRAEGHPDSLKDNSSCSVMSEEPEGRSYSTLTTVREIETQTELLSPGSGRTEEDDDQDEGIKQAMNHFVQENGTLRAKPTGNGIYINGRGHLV

[4] = biological target: T4, purified recombinant 191P4D12 (ECD amino acids 1-348) (human, UniProt Q96NY8 32-348); assay: SPR (Biacore), antibody captured by anti-human Fc, 191P4D12 ECD as analyte
T4 construct: Range as printed
T4 sequence: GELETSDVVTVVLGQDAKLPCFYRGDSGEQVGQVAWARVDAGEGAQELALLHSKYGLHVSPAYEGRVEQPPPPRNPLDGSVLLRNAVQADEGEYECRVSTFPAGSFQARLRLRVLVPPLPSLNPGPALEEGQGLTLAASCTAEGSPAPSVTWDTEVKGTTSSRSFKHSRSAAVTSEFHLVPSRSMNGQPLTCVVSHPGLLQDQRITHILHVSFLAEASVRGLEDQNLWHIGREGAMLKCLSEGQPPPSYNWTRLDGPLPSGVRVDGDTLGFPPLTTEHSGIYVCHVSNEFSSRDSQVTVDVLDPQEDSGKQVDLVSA
Procedure: The affinity of Ha22-2(2,4)6.1 MAb and Ha22-2(2,4)6.1vcMMAE to purified recombinant 191P4D12 (ECD amino acids 1-348) was performed by Surface Plasmon Resonance (SPR) (BIAcore). Briefly, goat-anti-human Fcγ polyclonal Abs (Jackson Immuno Research Labs, Inc.) were covalently immobilized on the surface of a CM5 sensor chip (Biacore). Purified Ha22-2(2,4)6.1 MAb or Ha22-2(2,4)6.1vcMMAE were then captured on the surface of said chip. On average, approximately 300 RUs of test Ha22-2(2,4)6.1 MAb or Ha22-2(2,4)6.1vcMMAE was captured in every cycle. Subsequently, a series of five (5) to six (6) dilutions of recombinant 191P4D12 (ECD amino acids 1-348) ranging from 1 nM to 100 nM was injected over such surface to generate binding curves (sensograms) that were processed and globally fit to a 1:1 interaction model using BIAevaluation 3.2 and CLAMP software (Myszka and Morton, 1998) (FIG. 22). Table V summarizes association and dissociation rate constants as well as affinities of Ha22-2(2,4)6.1 MAb and Ha22-2(2,4)6.1 vcMMAE to recombinant 191P4D12 (ECD amino acids 1-348).

[5] = biological target: T2, 191P4D12 (human, wild type, on cells); assay: FACS titration of Ha22-2(2,4)6.1 on PC3 cells expressing 191P4D12

B1: Ha22-2(2,4)6.1 MAb (antibody, human IgG1, kappa, V domains shown)
VH: EVQLVESGGGLVQPGGSLRLSCAASGFTFSSYNMNWVRQAPGKGLEWVSYISSSSSTIYYADSVKGRFTISRDNAKNSLSLQMNSLRDEDTAVYYCARAYYYGMDVWGQGTTVTVSS
VL: DIQMTQSPSSVSASVGDRVTITCRASQGISGWLAWYQQKPGKAPKFLIYAASTLQSGVPSRFSGSGSGTDFTLTISSLQPEDFATYYCQQANSFPPTFGGGTKVEIKR
notes: Fully human IgG1 kappa from XenoMouse; Used biotinylated in the Western blot; also called 191P4D12 MAb Ha22-2(2,4)6.1; Ha22-(2,4)6.1 MAb
Question: What does the source list for B1?
Answer: EC50 [1]: 0.3 nM; EC50 (read off the curve) [2]: ~0.4 nM; EC50 (read off the curve) [3]: ~0.4 nM; Kd [4]: 16 nM; koff [4]: 0.0058 s⁻¹; kon [4]: 380000 M⁻¹ s⁻¹; EC50 (read off the curve) [5]: ~0.6 nM
